Source: patent US5512203A, “Cutinase cleaning compositions” (Genencor International, Inc., priority 1994, dated 1996)

Experiments:
Type in all cases: biochemical
[1] = Effect of surfactants on hydrolase activity of cutinase; settings: for Compatibility of surfactant with the cutinase: at the concentrations tested
Procedure: This example measures the effect of surfactants (detergents) on the hydrolytic activity of cutinase. Specifically, in this example, an aqueous solution was prepared so as to contain 120 nanomoles per liter of cutinase (isolated in a substantially pure form from P. mendocina, ATCC 53552, described in U.S. Ser. No. 932,959 filed Nov. 19, 1986 and incorporated herein by reference); and 0.1 moles/liter of Tris Tris(hydroxymethyl)aminomethane! buffer maintained at pH 8.0 and 25° C. In some cases, surfactant sodium dodecyl sulfate (SDS) and/or Triton X-100™ (octoxynol), available from Rohn & Haas, Philadelphia, Pa.! was then added in the amount specified in Table 4 below. In this example, the enzymatic activity of the cutinase was measured in these solutions using the amount of p-nitrophenol generated from the p-nitrophenylbutyrate substrate as measured by following the absorbance of p-nitrophenol at 410 nm. The enzymatic activity of the cutinase under the above conditions and in the absence of surfactant is arbitrarily assigned a value of 100 percent and enzymatic activity of the other test solutions are reported as a percentage of the standard.

[2] = Stability of cutinase against proteases, hydrolysis of p-nitrophenyl butyrate; settings: for Cutinase activity after time: pH 10, 37° C.
Procedure: A. In part A of this example, the cutinase employed was that cutinase isolated in a substantially pure form from P. mendocina, ATCC 53552, described in U.S. Ser. No. 932,959 filed Nov. 19, 1986 and incorporated herein by reference and the protease employed was either Maxacal™ (a substilisin protease available from Gist-Brocade, N.V., Delft, Holland) or Esperase™ (a protease available from Novo Industries, Copenhagen, Denmark).
In this example aqueous test solutions containing 42 μg/ml of cutinase and either 35 μg/ml (Maxacal™) or 64 μg/ml (Esperase™) of protease were prepared. The solutions were buffered to pH 10 with 0.1M sodium phosphate. The solutions were incubated at 37° C. and the enzymatic activity of cutinase was periodically monitored by the hydrolysis of a model cutinase substrate p-nitrophenyl butyrate as measured by the absorbance change at 410 nm in 100 mM Tris buffer containing 0.1% Triton X-100 at pH 8. This value correlated against a standard, i.e., an aqueous solution containing cutinase but no protease. Diminishment in the enzymatic activity of the cutinase in the test solutions as compared to the standard is attributed to degradation of the cutinase by the protease.

[3] = Stability of cutinase to oxidants (hydrogen peroxide); settings: for Percent Cutinase Activity: pH 8.4, 25° C., two hours
Procedure: Specifically, in this example, an aqueous solution of 0.5 mg/ml of cutinase (isolated in a substantially pure form from P. mendocina, ATCC 53552, described in U.S. Ser. No. 932,959 filed Nov. 19, 1986 and incorporated herein by reference) containing 0.1M sodium phosphate buffer was incubated in varying amounts of hydrogen peroxide wherein the aqueous solution was maintained at pH 8.4 and at 25° C. for two hours. The enzymatic activity of the cutinase under the above conditions and in the absence of hydrogen peroxide is arbitrarily assigned a value of 100% and enzymatic activity of the other test solutions are reported as a percentage of the standard.

[4] = Cutinase activity after 28 minutes with proteases, pH stat hydrolysis of trioctanoin; settings: 2 μg/ml cutinase, pH 10, 37° C.
Excerpt: B. In part B of this example, the cutinase employed was the same as in part A above whereas the protease employed was either Alcalase™ (an alkaline protease available from Novo Industries, Copenhagen, Denmark), a mixture of Alcalase™ and Savinase™ (an alkaline protease available from Novo Industries, Copenhagen, Denmark), or a mixture of Savinase™ and Esperase™ (a protease available from Novo Industries, Copenhagen, Denmark).
In this example, aqueous test solutions containing cutinase contained 2 μg/ml of cutinase and the amount of protease specified in Table 2 below. The solutions were incubated at 37° C. for 28 minutes at pH 10 and the enzymatic activity of cutinase was periodically measured in a pH stat by the hydrolysis of trioctanoin in a 0.5 percent trioctanoin and a 0.05 percent sodium dodecyl sulfate emulsion. The measured value was correlated against a standard, i.e., an aqueous solution containing cutinase but no protease. Diminishment in the enzymatic activity of the cutinase in the test solutions as compared to the standard is attributed to degradation of the cutinase by the protease.

[5] = Cutinase activity against pH (FIG. 1)
[6] = Removal of cutin-like stains from an insoluble support matrix, 3H-triolein hydrolysis; settings: polyester swatches, 1 percent BSA
Procedure: The substrate was prepared by diluting 1 mCi of ^3 H-Triolein (0.5 mCi/ml, […]) into 17 ml isopropanol containing 421 mg of non-^3 H-Triolein. The final concentration was about 23-24 mg Triolein/ml. This was divided into 1 ml aliquots and stored.
Polyester cloth swatches cut into approximately 1/2 inch×1/2 inch squares were laid onto a glass plate. 3 μl of the above mixture was pipetted onto each swatch and allowed to air dry.
A solution comprising 1 percent fatty acid free bovine serum albumin (BSA), and 100 mM of a suitable buffer, preferably Tris (pH range 6 to 9) or glycine (pH range 8 to 11) was allowed to equilibrate to a fixed temperature (preferably 32° C.) in a shaking water bath. An aliquot of cutinase (0.25 to 1.5 μg/ml) was then added to 2.8 ml of the BSA solution, followed by the insertion of four of the cloth swatches, taking care to keep the swatches as separate as possible. The cutinase added was isolated from Fusarium solani pisi, Colletotrichum capsici, Pseudomonas mendocina or Pestalotia subcuticularia. The entire mixture was then allowed to shake in the constant temperature bath at 150 rpm for 15 minutes.
An aliquot of the liquor, preferably 20% of the entire volume was pipetted into a scintillation vial containing 10 ml of Ecolume™ scintillation fluid. After chilling, the scintillation vials were counted. […]

[7] = pH stability of bacterial cutinase, half-life at 50° C., hydrolysis of trioctanoin in polyvinyl alcohol emulsions
Procedure: In this example the half-life of the same cutinase used in Example 1 above was measured at 50° C. at various pHs. Specifically, cutinase was introduced into a 0.1M sodium phosphate buffer at the pH specified below and the activity was measured by hydrolysis of trioctanoin in polyvinyl alcohol emulsions. The time required for the activity to diminish to 1/2 of its initial value is taken as the half-life at that particular pH.

Molecule: CCCCCCCCCCCCOS(=O)(=O)[O-].[Na+] [sodium dodecyl sulfate, reference compound]
- Compatibility of surfactant with the cutinase [1]: is not

Molecule: octoxynol [Triton X-100, reference compound]
- Compatibility of surfactant with the cutinase [1]: compatible with the cutinase

B1: cutinase: cutinase isolated in a substantially pure form from Pseudomonas mendocina ATCC 53552, amino acid sequence of SEQ ID NO:1 (protein)
chain: APLPDTPGAPFPAVANFDRSGPYTTSSQSEGPSCRIYRPRNLGQGGVRHPVILWGNGTGAGPSTYAGLLSHWASHGFVVAAAETSNAGTGREMLACLDYLVRENDTPYGTYSGKLNTGRVGTSGHSQGGGGSIMAGQDTRVRTTAPIQPYTLGLGHDSASQRRQQGPMFLMSGGGDTIAFPYLNAQPVYRRANVPVFWGERRYVSHFEPVGSGGAYRGPSTAWFRFQLMDDQDARATFYGAQCSLCTSLLWSVERRGL
- Cutinase activity after time ([2]; Esperase 64 μg/ml, 0 min): 1.73 absorbance change at 410 nm
- Cutinase activity after time ([2]; Esperase 64 μg/ml, 5 min): 1.64 absorbance change at 410 nm
- Cutinase activity after time ([2]; Esperase 64 μg/ml, 10 min): 1.59 absorbance change at 410 nm
- Cutinase activity after time ([2]; Esperase 64 μg/ml, 15 min): 1.51 absorbance change at 410 nm
- Cutinase activity after time ([2]; Esperase 64 μg/ml, 840 min): 0.456 absorbance change at 410 nm
- Cutinase activity after time ([2]; Maxacal 35 μg/ml, 0 min): 1.68 absorbance change at 410 nm
- Cutinase activity after time ([2]; Maxacal 35 μg/ml, 5 min): 1.58 absorbance change at 410 nm
- Cutinase activity after time ([2]; Maxacal 35 μg/ml, 10 min): 1.72 absorbance change at 410 nm
- Cutinase activity after time ([2]; Maxacal 35 μg/ml, 15 min): 1.66 absorbance change at 410 nm
- Cutinase activity after time ([2]; Maxacal 35 μg/ml, 840 min): 0.134 absorbance change at 410 nm
- Cutinase activity after time ([2]; Standard, no protease, 0 min, 42 μg/ml cutinase): 1.57 absorbance change at 410 nm
- Cutinase activity after time ([2]; Standard, no protease, 5 min): 1.60 absorbance change at 410 nm
- Cutinase activity after time ([2]; Standard, no protease, 10 min): 1.47 absorbance change at 410 nm
- Cutinase activity after time ([2]; Standard, no protease, 15 min): 1.63 absorbance change at 410 nm
- Cutinase activity after time ([2]; Standard, no protease, 840 min): 1.61 absorbance change at 410 nm
- Stability in aqueous solution in the presence of a protease ([2]; results from A and B of Example 1, periods of time commonly encountered in cleaning use): stable
- Stability of cutinase activity in the presence of an oxidant ([3]; hydrogen peroxide): sufficiently stable
- Percent Cutinase Activity ([3]; hydrogen peroxide 0 ppm (standard assigned 100%)): 100%
- Percent Cutinase Activity ([3]; hydrogen peroxide 100 ppm): 86%
- Percent Cutinase Activity ([3]; hydrogen peroxide 200 ppm): 86%
- Percent Cutinase Activity ([3]; hydrogen peroxide 500 ppm): 91%
- Percent Cutinase Activity ([3]; hydrogen peroxide 1000 ppm): 95%
- Percent Activity ([1]; Triton X-100 0, SDS 0 weight percent (standard assigned 100), pH 8.0, 25° C.): 100%
- Percent Activity ([1]; Triton X-100 0, SDS 0.05 weight percent): 30%
- Percent Activity ([1]; Triton X-100 0, SDS 0.1 weight percent): 23%
- Percent Activity ([1]; Triton X-100 0, SDS 0.2 weight percent): 14%
- Percent Activity ([1]; Triton X-100 0, SDS 0.4 weight percent): 6%
- Percent Activity ([1]; Triton X-100 0.05, SDS 0.05 weight percent): 132%
- Percent Activity ([1]; Triton X-100 0.1, SDS 0.1 weight percent): 130%
- Percent Activity ([1]; Triton X-100 0.2, SDS 0 weight percent): 78%
- Percent Activity ([1]; Triton X-100 0.2, SDS 0.05 weight percent): 125%
- Percent Activity ([1]; Triton X-100 0.2, SDS 0.1 weight percent): 138%
- Percent Activity ([1]; Triton X-100 0.2, SDS 0.2 weight percent): 98%
- Percent Activity ([1]; Triton X-100 0.4, SDS 0 weight percent): 60%
- Percent Activity ([1]; Triton X-100 0.4, SDS 0.4 weight percent): 78%
- Cutinase activity in the aqueous solution after 28 minutes ([4]; Alcalase 34.7 μg/ml): 420.3 units of octanoic acid released
- Cutinase activity in the aqueous solution after 28 minutes ([4]; Alcalase/Savinase 17.7/20.0 μg/ml): 428.0 units of octanoic acid released
- Cutinase activity in the aqueous solution after 28 minutes ([4]; Esperase/Savinase 15.0/13.0 μg/ml): 411.0 units of octanoic acid released
- Cutinase activity in the aqueous solution after 28 minutes ([4]; no protease): 417.8 units of octanoic acid released
- pH at which cutinase activity reaches a maximum ([5]; FIG. 1): 7
- Share of maximum activity maintained ([5]; up to pH 11, FIG. 1): ≥ 80%
- Sp. activity triolein hydrolysis [6]: 157,045 cnts./10 min./μg enzyme
- Triolein hydrolysis ([6]; cutinase 0.25 to 1.5 μg/ml): 9,250 cnts./10 min.
- Stability of cutinase activity at pH ([7]; neutral and alkaline pHs, 50° C.): sufficiently stable
- Half-life at 50° C. ([7]; pH 7, 0.1M sodium phosphate buffer): 30 h
- Half-life at 50° C. ([7]; pH 8, 0.1M sodium phosphate buffer): 25 h
- Half-life at 50° C. ([7]; pH 9, 0.1M sodium phosphate buffer): 12 h
- Half-life at 50° C. ([7]; pH 10, 0.1M sodium phosphate buffer): 0.3 h
